test system: Escherichia coli TOP10; test: shrunken log2 fold change of peptide-encoding DNA abundance (4.5 h post-induction vs induction); higher = less antimicrobial activity (less host growth inhibition); details: time post-induction: 4.5 h; library: site-saturation at positions 5, 18, 19, 20
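Note: peptides expressed intracellularly from a pBAD plasmid library in pooled LB shake-flask culture, induced with 0.3% L-arabinose, DNA abundance read by NGS, three biological replicates, DESeq2 with apeglm shrinkage.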

| Sequence | shrunken log2 fold change |
| --- | --- |
| RRIRQRPPRLPRPRPRPEATPRP | 0.353 |
| RRIRARPPRLPRPRPRPATSPRP | 0.461 |
| RRIRCRPPRLPRPRPRPRTNPRP | 0.0761 |
| RRIRHRPPRLPRPRPRPWNFPRP | -0.0202 |
| RRIRRRPPRLPRPRPRPMFVPRP | -0.0498 |
| RRIRDRPPRLPRPRPRPWGVPRP | 0.0789 |
| RRIRLRPPRLPRPRPRPQLYPRP | -0.12 |
| RRIRVRPPRLPRPRPRPLQMPRP | 0.312 |
| RRIRCRPPRLPRPRPRPHMMPRP | -1.12 |
| RRIRSRPPRLPRPRPRPTEYPRP | -0.206 |
| RRIRFRPPRLPRPRPRPWYIPRP | -0.623 |
| RRIRVRPPRLPRPRPRPSERPRP | -0.0442 |
| RRIRLRPPRLPRPRPRPWMVPRP | -0.263 |
| RRIRSRPPRLPRPRPRPWSTPRP | -0.696 |
| RRIRMRPPRLPRPRPRPAHDPRP | 0.673 |
| RRIRFRPPRLPRPRPRPGMPPRP | -0.0207 |
| RRIRYRPPRLPRPRPRPSRHPRP | -0.649 |
| RRIRLRPPRLPRPRPRPFYQPRP | -0.161 |
| RRIRHRPPRLPRPRPRPYYRPRP | -0.0075 |
| RRIRCRPPRLPRPRPRPPEAPRP | 0.968 |
| RRIRTRPPRLPRPRPRPREGPRP | 0.41 |
| RRIRQRPPRLPRPRPRPLVSPRP | 0.00785 |
| RRIRYRPPRLPRPRPRPKTVPRP | -1.07 |
| RRIRKRPPRLPRPRPRPSVQPRP | 0.0869 |
| RRIRIRPPRLPRPRPRPQPKPRP | -0.0343 |

| Sequence | shrunken log2 fold change |
| --- | --- |
| RRIRHRPPRLPRPRPRPCLMPRP | -0.0298 |
| RRIRDRPPRLPRPRPRPLRIPRP | 0.168 |
| RRIRIRPPRLPRPRPRPSFTPRP | -0.573 |
| RRIRMRPPRLPRPRPRPSDMPRP | 0.0637 |
| RRIRMRPPRLPRPRPRPAWIPRP | 0.052 |
| RRIRPRPPRLPRPRPRPVQRPRP | 0.0521 |
| RRIRPRPPRLPRPRPRPHSCPRP | -0.11 |
| RRIRFRPPRLPRPRPRPYISPRP | -0.295 |
| RRIRERPPRLPRPRPRPLTPPRP | -0.123 |
| RRIRKRPPRLPRPRPRPKHCPRP | -0.222 |
| RRIRKRPPRLPRPRPRPFTSPRP | 0.093 |
| RRIRKRPPRLPRPRPRPGNRPRP | 0.143 |
| RRIRERPPRLPRPRPRPPTPPRP | 0.192 |
| RRIRFRPPRLPRPRPRPDFFPRP | -0.027 |
| RRIRWRPPRLPRPRPRPICQPRP | -0.146 |
| RRIRQRPPRLPRPRPRPVAPPRP | 0.357 |
| RRIRHRPPRLPRPRPRPCGLPRP | -0.0199 |
| RRIRIRPPRLPRPRPRPKALPRP | -0.0211 |
| RRIRKRPPRLPRPRPRPQCRPRP | 0.162 |
| RRIRYRPPRLPRPRPRPACFPRP | -0.166 |
| RRIRTRPPRLPRPRPRPRWTPRP | -0.0339 |
| RRIRARPPRLPRPRPRPVFMPRP | 0.0722 |
| RRIRMRPPRLPRPRPRPRWMPRP | 0.315 |
| RRIRCRPPRLPRPRPRPYHQPRP | -0.819 |
| RRIRKRPPRLPRPRPRPRKLPRP | 0.0707 |

| Sequence | shrunken log2 fold change |
| --- | --- |
| RRIRPRPPRLPRPRPRPYLIPRP | -0.445 |
| RRIRVRPPRLPRPRPRPPDSPRP | -0.136 |
| RRIRERPPRLPRPRPRPLLFPRP | -0.121 |
| RRIRCRPPRLPRPRPRPDNLPRP | -0.595 |
| RRIRYRPPRLPRPRPRPMIVPRP | -0.209 |
| RRIRPRPPRLPRPRPRPCQPPRP | -0.0774 |
| RRIRDRPPRLPRPRPRPFYQPRP | -0.276 |
| RRIRMRPPRLPRPRPRPWHAPRP | 0.098 |
| RRIRKRPPRLPRPRPRPCCGPRP | 0.281 |
| RRIRNRPPRLPRPRPRPYQYPRP | 0.0162 |
| RRIRFRPPRLPRPRPRPKTLPRP | -0.145 |
| RRIRIRPPRLPRPRPRPFKHPRP | -1.2 |
| RRIRLRPPRLPRPRPRPFNIPRP | -0.0972 |
| RRIRMRPPRLPRPRPRPDKSPRP | 0.283 |
| RRIRYRPPRLPRPRPRPLLRPRP | -0.468 |
| RRIRQRPPRLPRPRPRPHVPPRP | -0.0247 |
| RRIRLRPPRLPRPRPRPLTRPRP | 1.93 |
| RRIRQRPPRLPRPRPRPYWHPRP | -0.317 |
| RRIRERPPRLPRPRPRPSCCPRP | 0.294 |
| RRIRQRPPRLPRPRPRPMPPPRP | 0.517 |
| RRIRGRPPRLPRPRPRPVTKPRP | 0.661 |
| RRIRLRPPRLPRPRPRPLFAPRP | 0.233 |
| RRIRLRPPRLPRPRPRPKPTPRP | 0.15 |
| RRIRPRPPRLPRPRPRPFGAPRP | -0.00494 |
| RRIRDRPPRLPRPRPRPGTVPRP | 0.118 |

| Sequence | shrunken log2 fold change |
| --- | --- |
| RRIRQRPPRLPRPRPRPCEPPRP | -0.0332 |
| RRIRGRPPRLPRPRPRPLKKPRP | 0.195 |
| RRIRVRPPRLPRPRPRPFETPRP | -0.0538 |
| RRIRMRPPRLPRPRPRPVQYPRP | 0.0273 |
| RRIRIRPPRLPRPRPRPNHMPRP | -0.361 |
| RRIRYRPPRLPRPRPRPMQAPRP | -0.0122 |
| RRIRIRPPRLPRPRPRPQYHPRP | -0.436 |
| RRIRCRPPRLPRPRPRPRFAPRP | 0.356 |
| RRIRFRPPRLPRPRPRPLEAPRP | 0.0974 |
| RRIRTRPPRLPRPRPRPFSTPRP | -0.0812 |
| RRIRYRPPRLPRPRPRPDGMPRP | 0.0112 |
| RRIRHRPPRLPRPRPRPAMEPRP | 0.0691 |
| RRIRPRPPRLPRPRPRPFALPRP | 0.238 |
| RRIRVRPPRLPRPRPRPYLMPRP | -0.587 |
| RRIRVRPPRLPRPRPRPRTAPRP | 0.287 |
| RRIRTRPPRLPRPRPRPMGRPRP | 0.217 |
| RRIRHRPPRLPRPRPRPHLYPRP | -0.24 |
| RRIRIRPPRLPRPRPRPHRCPRP | -0.0635 |
| RRIRCRPPRLPRPRPRPIYAPRP | -0.281 |
| RRIRFRPPRLPRPRPRPRGQPRP | 0.415 |
| RRIRHRPPRLPRPRPRPFIKPRP | -0.138 |
| RRIRLRPPRLPRPRPRPIARPRP | -0.0553 |
| RRIRMRPPRLPRPRPRPHMNPRP | -0.0129 |
| RRIRLRPPRLPRPRPRPWRWPRP | 0.0385 |
| RRIRLRPPRLPRPRPRPERSPRP | 0.293 |

| Sequence | shrunken log2 fold change |
| --- | --- |
| RRIRFRPPRLPRPRPRPWWNPRP | -0.26 |
| RRIRPRPPRLPRPRPRPFYDPRP | -0.138 |
| RRIRERPPRLPRPRPRPPCAPRP | -0.0458 |
| RRIRPRPPRLPRPRPRPCLCPRP | -0.222 |
| RRIRKRPPRLPRPRPRPRDEPRP | -0.0461 |
| RRIRRRPPRLPRPRPRPGMMPRP | 0.257 |
| RRIRARPPRLPRPRPRPCSTPRP | -0.0691 |
| RRIRERPPRLPRPRPRPYDDPRP | -0.341 |
| RRIRIRPPRLPRPRPRPHYSPRP | -1.15 |
| RRIRCRPPRLPRPRPRPWTWPRP | 0.00573 |
| RRIRYRPPRLPRPRPRPWFAPRP | -0.497 |
| RRIRPRPPRLPRPRPRPIAIPRP | 0.247 |
| RRIRRRPPRLPRPRPRPVMQPRP | 0.316 |
| RRIRVRPPRLPRPRPRPGVVPRP | 0.43 |
| RRIRMRPPRLPRPRPRPICDPRP | 0.36 |
| RRIRERPPRLPRPRPRPLPFPRP | -0.688 |
| RRIRCRPPRLPRPRPRPWHNPRP | -0.244 |
| RRIRNRPPRLPRPRPRPYSPPRP | -0.276 |
| RRIRMRPPRLPRPRPRPFIIPRP | -0.268 |
| RRIRGRPPRLPRPRPRPSFVPRP | 0.0328 |
| RRIRNRPPRLPRPRPRPFGVPRP | 0.125 |
| RRIRERPPRLPRPRPRPSECPRP | -0.592 |
| RRIRFRPPRLPRPRPRPQYWPRP | -0.462 |
| RRIRERPPRLPRPRPRPYNMPRP | 0.0461 |
| RRIRRRPPRLPRPRPRPDVGPRP | -0.042 |

| Sequence | shrunken log2 fold change |
| --- | --- |
| RRIRNRPPRLPRPRPRPNNMPRP | -0.278 |
| RRIRIRPPRLPRPRPRPPMAPRP | -0.256 |
| RRIRMRPPRLPRPRPRPASCPRP | 0.629 |
| RRIRVRPPRLPRPRPRPCCVPRP | -0.146 |
| RRIRPRPPRLPRPRPRPCNFPRP | -0.129 |
| RRIRIRPPRLPRPRPRPSAAPRP | 0.0317 |
| RRIRYRPPRLPRPRPRPHYYPRP | 0.0204 |
| RRIRIRPPRLPRPRPRPANQPRP | -0.693 |
| RRIRERPPRLPRPRPRPRVGPRP | 0.33 |
| RRIRYRPPRLPRPRPRPVHGPRP | -0.014 |
| RRIRNRPPRLPRPRPRPGLQPRP | -0.113 |
| RRIRCRPPRLPRPRPRPLTNPRP | -0.454 |
| RRIRERPPRLPRPRPRPNRPPRP | -0.123 |
| RRIRARPPRLPRPRPRPYFCPRP | -0.346 |
| RRIRQRPPRLPRPRPRPYWMPRP | 0.0425 |
| RRIRIRPPRLPRPRPRPMWPPRP | 0.128 |
| RRIRHRPPRLPRPRPRPWIHPRP | -0.197 |
| RRIRFRPPRLPRPRPRPMVIPRP | 0.023 |
| RRIRDRPPRLPRPRPRPTMNPRP | 0.116 |
| RRIRRRPPRLPRPRPRPGAEPRP | 2.68 |
| RRIRYRPPRLPRPRPRPNLGPRP | -0.0146 |
| RRIRDRPPRLPRPRPRPFTTPRP | -0.132 |
| RRIRHRPPRLPRPRPRPFAKPRP | -0.362 |
| RRIRVRPPRLPRPRPRPPMPPRP | 0.368 |
| RRIRWRPPRLPRPRPRPMNVPRP | 0.0542 |
